# According to publication doi:10.1101/2025.05.07.652689, “Structural features within precursor microRNA-20a regulate Dicer-TRBP processing” (bioRxiv, 2025):
# B1: human transactivation response element RNA-binding protein (TRBP) (natural protein, UniProt Q15633 1-366, looked up)
# chain: MSEEEQGSGTTTGCGLPSIEQMLAANPGKTPISLLQEYGTRIGKTPVYDLLKAEGQAHQPNFTFRVTVGDTSCTGQGPSKKAAKHKAAEVALKHLKGGSMLEPALEDSSSFSPLDSSLPEDIPVFTAAAAATPVPSVVLTRSPPMELQPPVSPQQSECNPVGALQELVVQKGWRLPEYTVTQESGPAHRKEFTMTCRVERFIEIGSGTSKKLAKRNAAAKMLLRVHTVPLDARDGNEVEPDDDHFSIGVGSRLDGLRNRGPGCTWDSLRNSVGEKILSLRSCSLGSLGALGPACCRVLSELSEEQAFHVSYLDIEELSLSGLCQCLVELSTQPATVCHGSATTREAARGEAARRALQYLKIMAGSK
# notes: TRBP, human, from plasmid pET28a-TRBP; The construct is that of Addgene plasmid #50351
# Target: T1, Recombinant human Dicer (FLAG-Dicer) (human, UniProt Q9UPY3 1-1922)
# T1 construct: Dicer, human RNase III enzyme; source: Expi293 cells expressing FLAG-Dicer (University of Michigan Protein core), purified (M2 anti-FLAG resin)
# Assay: SEC; purified Dicer and TRBP mixed at a 1:3 molar ratio, concentrated, loaded on HiLoad 16/600 Superdex 200 in buffer D (20 mM Tris-HCl pH 8.0, 150 mM NaCl, 2 mM DTT)
# Conditions: both partners purified
# T1 sequence (Q9UPY3 whole entry): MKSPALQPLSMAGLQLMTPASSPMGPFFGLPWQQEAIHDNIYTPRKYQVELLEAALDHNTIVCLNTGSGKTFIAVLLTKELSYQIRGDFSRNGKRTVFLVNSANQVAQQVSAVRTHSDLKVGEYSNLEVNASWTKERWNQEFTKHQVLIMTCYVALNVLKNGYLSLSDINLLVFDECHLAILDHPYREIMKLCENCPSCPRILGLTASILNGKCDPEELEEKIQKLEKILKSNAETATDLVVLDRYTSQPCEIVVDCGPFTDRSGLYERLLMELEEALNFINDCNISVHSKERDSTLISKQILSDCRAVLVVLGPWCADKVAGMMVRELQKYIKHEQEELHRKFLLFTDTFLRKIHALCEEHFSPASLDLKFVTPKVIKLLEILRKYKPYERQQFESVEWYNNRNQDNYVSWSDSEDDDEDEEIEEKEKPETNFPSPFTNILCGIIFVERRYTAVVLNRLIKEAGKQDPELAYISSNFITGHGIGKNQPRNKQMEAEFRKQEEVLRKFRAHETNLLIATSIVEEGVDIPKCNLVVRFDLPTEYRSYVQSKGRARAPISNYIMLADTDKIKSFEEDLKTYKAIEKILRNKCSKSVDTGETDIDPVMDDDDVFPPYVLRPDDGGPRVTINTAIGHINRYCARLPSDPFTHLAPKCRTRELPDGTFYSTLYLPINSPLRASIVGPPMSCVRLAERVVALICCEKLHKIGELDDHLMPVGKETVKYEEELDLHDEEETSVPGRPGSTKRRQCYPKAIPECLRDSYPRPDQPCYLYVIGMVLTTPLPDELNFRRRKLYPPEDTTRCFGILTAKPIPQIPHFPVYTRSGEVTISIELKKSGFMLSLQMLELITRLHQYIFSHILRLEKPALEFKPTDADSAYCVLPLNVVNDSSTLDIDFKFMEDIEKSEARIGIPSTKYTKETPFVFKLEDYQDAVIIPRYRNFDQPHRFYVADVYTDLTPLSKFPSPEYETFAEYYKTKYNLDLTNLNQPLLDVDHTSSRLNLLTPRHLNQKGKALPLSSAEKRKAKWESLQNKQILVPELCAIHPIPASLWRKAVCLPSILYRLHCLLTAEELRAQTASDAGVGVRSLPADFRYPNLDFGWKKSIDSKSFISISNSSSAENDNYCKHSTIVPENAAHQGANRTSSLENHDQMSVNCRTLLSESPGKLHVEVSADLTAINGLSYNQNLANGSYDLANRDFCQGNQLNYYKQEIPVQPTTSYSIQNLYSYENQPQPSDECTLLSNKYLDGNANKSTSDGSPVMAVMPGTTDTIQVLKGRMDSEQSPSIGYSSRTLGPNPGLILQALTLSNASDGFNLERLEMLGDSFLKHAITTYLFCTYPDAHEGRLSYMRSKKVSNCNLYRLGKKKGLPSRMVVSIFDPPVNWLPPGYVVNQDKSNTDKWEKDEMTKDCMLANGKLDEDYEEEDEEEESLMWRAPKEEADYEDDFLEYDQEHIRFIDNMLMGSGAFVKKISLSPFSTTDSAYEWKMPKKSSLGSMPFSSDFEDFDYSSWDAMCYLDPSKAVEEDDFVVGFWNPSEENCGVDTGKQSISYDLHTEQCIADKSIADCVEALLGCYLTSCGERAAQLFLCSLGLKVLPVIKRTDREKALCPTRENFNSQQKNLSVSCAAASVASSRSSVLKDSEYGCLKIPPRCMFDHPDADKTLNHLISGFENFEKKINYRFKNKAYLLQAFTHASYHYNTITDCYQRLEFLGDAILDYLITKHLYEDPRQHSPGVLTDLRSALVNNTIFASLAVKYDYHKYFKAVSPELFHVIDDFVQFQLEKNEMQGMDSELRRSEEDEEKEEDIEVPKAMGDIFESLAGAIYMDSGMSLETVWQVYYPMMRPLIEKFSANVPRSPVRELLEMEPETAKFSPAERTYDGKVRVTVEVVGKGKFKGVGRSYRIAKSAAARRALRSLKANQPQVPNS
binder,measurement,value
B1,binding result,binds
